Assay results taken from publication PMC10702856 (Antibody Therapeutics, 2023).

B1: ADAH15 (VHH)
VHH: QVQLQESGGGLVQAGGSLRLSCAASGTTYLAANMGWFRQAPGKEREFVAAITFFHNPTVYYADSVKGRFTISRDNAKNTVYLQMNSLKPEDTAVYYCAATVLVRDRIHFSHSIGIRYWGQGTQVTVSS
B2: ADAH14 (VHH)
VHH: QVQLQESGGGLVQAGGSLRLSCAASGSYFFHALMGWFRQAPVKEREFVASITAVPGATYYRRCTDSVKGRFTISRDNAKNTVYLQMNSLKPEDTAVYYCALATHSNRHTPITYWGQGTQVTVSS

Experiments:
[1] = molecular target: SARS-CoV-2 S receptor binding domain, Ancestral (SARS-CoV-2, Ancestral strain, UniProt P0DTC2)
[2] = molecular target: ADDoCoV (ADDomer-COVID-19 vaccine) nanoparticle (human adenovirus serotype Ad3 | …, UniProt P0DTC2)

| Binder | binding result [1] | binding result [2] |
| --- | --- | --- |
| B1 | binds | binds |
| B2 | binds | binds |
